Columns and labels:
[1] = biological target: NS5A-ΔN39 (residues 39-447), recombinant, lacking the membrane-binding amphipathic helix (hepatitis C virus) (UniProt Q9WMX2); experiment: cross-linking
cross-linking = biological target: the molecule itself; experiment: cross-linking

Which stoichiometry N [1] does the source give for “NS5A-ΔN39 (residues 39-447), recombinant, lacking the membrane-binding amphipathic helix (from UniProt Q9WMX2 40-448) (domain or fragment)” here?
The stoichiometry N was 2.

B1: VAP-33-ΔC20 (recombinant human VAP-33 protein, residues 1-227) (domain or fragment, UniProt Q9P0L0 1-227, looked up)
chain: MASASGAMAKHEQILVLDPPTDLKFKGPFTDVVTTNLKLRNPSDRKVCFKVKTTAPRRYCVRPNSGIIDPGSTVTVSVMLQPFDYDPNEKSKHKFMVQTIFAPPNTSDMEAVWKEAKPDELMDSKLRCVFEMPNENDKLNDMEPSKAVPLNASKQDGPMPKPHSVSLNDTETRKLMEECKRLQGEMMKLSEENRHLRDEGLRLRKVAHSDKPGSTSTASFRDNVTSP
Which “stoichiometry N” value (cross-linking) does the source give for B1 here?
Its value is 2.

B2: viperin-ΔN50 (residues 50-361), recombinant, C-terminal His6-tagged, iron-sulfur cluster reconstituted (domain or fragment, human, UniProt Q8WXG1 50-361, looked up)
chain: QLVLRGPDETKEEEEDPPLPTTPTSVNYHFTRQCNYKCGFCFHTAKTSFVLPLEEAKRGLLLLKEAGMEKINFSGGEPFLQDRGEYLGKLVRFCKVELRLPSVSIVSNGSLIRERWFQNYGEYLDILAISCDSFDEEVNVLIGRGQGKKNHVENLQKLRRWCRDYRVAFKINSVINRFNVEEDMTEQIKALNPVRWKVFQCLLIEGENCGEDALREAERFVIGDEEFERFLERHKEVSCLVPESNQKMKDSYLILDEYMRFLNCRKGRKDPSKSILDVGVEEAIKFSGFDEKMFLKRGGKYIWSKADLKLDW
For B2, which “stoichiometry N” value (cross-linking) is on record?
Its value is 2.

Reference: doi:10.1101/824458 (bioRxiv, 2019)
